Patent US6083709

Key:
Assay in all cases: p53 two-site sandwich ELISA, sample tested at 100 ng/ml
[1] = target: hG-CSF (human (by the printed prefix h; not spelled out)) (UniProt P09919)
[2] = target: hrIL-3 (human (by the printed prefix hr; not spelled out)) (UniProt P08700)
[3] = target: hrIL-1β (human (by the printed prefix hr; not spelled out)) (UniProt P01584)
[4] = target: hrIGF-1 (human (by the printed prefix hr; not spelled out)) (UniProt P05019)
[5] = target: hrGM-CSF (human (by the printed prefix hr; not spelled out)) (UniProt P04141)
[6] = target: hrIL-6 (human (by the printed prefix hr; not spelled out)) (UniProt P05231)
[7] = target: hrIL-2 (human (by the printed prefix hr; not spelled out)) (UniProt P60568)
[8] = target: hrIL-1α (human (by the printed prefix hr; not spelled out)) (UniProt P01583)
[9] = target: hrTNFα (human (by the printed prefix hr; not spelled out)) (UniProt P01375)
[10] = target: bInsulin (bovine (by the printed prefix b; not spelled out)) (UniProt P01317)
[11] = target: hTransferin (human (by the printed prefix h; not spelled out)) (UniProt P02787)
[12] = target: hPDGF (human (by the printed prefix h; not spelled out))
[13] = target: hrIL-4 (human (by the printed prefix hr; not spelled out)) (UniProt P05112)

Measured: Assay Results (apparent mutant p53 read in the p53 ELISA)

monoclonal antibody from clone PAb240
< 50 pg/mL: all assays above
